US20120135912A1 (PERSEID THERAPEUTICS, published 2012)
Where “and” joins values, the source holds several entries; their conditions need not be identical. Identical values can stand only once.

Assays:
[1] = target: human VLA4 (integrin alpha4beta1) on the surface of U937 cells (human, UniProt P13612 34-1032; P05556 21-798); assay: cell-based or functional assay
[2] = target: T1, human VLA4-Fc (alpha4-Fc/beta1-Fc heterodimer) (human); assay: ELISA, VLA4-Fc coated, 1 mM MnCl2; from EC50 values
T1 construct: Soluble heterodimer from CHO cells, Protein A purified; also called VLA-Fc
T1 sequence (chain, as listed by the source limits assumed, form in doubt, chain 1 of 2): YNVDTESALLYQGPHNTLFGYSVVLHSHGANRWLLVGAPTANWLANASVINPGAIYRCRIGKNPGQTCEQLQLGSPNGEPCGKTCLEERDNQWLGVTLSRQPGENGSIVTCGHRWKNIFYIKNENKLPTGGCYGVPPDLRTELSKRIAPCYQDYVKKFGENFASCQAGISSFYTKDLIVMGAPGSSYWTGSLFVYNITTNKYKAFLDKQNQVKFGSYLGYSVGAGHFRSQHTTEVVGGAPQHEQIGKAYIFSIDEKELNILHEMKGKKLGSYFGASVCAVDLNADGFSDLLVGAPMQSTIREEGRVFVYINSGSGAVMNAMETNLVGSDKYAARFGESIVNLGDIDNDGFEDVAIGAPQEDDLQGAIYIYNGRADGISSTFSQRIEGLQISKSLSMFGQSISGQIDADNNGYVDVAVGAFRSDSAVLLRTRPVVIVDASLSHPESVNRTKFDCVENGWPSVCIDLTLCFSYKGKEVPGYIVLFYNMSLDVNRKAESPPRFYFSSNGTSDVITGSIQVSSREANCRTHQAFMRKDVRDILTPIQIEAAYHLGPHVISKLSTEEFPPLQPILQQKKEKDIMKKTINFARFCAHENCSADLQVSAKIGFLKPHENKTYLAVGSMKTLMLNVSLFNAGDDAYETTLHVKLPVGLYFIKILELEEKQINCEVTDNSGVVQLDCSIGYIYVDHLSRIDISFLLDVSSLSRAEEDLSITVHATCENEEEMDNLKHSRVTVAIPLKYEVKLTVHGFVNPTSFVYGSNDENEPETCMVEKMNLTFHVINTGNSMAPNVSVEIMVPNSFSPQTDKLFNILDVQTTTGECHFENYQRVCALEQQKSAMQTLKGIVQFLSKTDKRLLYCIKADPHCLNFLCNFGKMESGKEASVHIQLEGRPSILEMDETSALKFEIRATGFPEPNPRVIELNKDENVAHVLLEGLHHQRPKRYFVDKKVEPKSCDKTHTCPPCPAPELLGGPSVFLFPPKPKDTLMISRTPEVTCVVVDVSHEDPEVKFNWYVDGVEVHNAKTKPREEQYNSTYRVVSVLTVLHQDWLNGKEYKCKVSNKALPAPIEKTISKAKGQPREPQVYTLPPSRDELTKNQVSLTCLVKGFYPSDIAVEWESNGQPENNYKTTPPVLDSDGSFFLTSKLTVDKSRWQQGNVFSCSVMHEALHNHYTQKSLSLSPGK
T1 sequence (chain, as listed by the source limits assumed, form in doubt, chain 2 of 2): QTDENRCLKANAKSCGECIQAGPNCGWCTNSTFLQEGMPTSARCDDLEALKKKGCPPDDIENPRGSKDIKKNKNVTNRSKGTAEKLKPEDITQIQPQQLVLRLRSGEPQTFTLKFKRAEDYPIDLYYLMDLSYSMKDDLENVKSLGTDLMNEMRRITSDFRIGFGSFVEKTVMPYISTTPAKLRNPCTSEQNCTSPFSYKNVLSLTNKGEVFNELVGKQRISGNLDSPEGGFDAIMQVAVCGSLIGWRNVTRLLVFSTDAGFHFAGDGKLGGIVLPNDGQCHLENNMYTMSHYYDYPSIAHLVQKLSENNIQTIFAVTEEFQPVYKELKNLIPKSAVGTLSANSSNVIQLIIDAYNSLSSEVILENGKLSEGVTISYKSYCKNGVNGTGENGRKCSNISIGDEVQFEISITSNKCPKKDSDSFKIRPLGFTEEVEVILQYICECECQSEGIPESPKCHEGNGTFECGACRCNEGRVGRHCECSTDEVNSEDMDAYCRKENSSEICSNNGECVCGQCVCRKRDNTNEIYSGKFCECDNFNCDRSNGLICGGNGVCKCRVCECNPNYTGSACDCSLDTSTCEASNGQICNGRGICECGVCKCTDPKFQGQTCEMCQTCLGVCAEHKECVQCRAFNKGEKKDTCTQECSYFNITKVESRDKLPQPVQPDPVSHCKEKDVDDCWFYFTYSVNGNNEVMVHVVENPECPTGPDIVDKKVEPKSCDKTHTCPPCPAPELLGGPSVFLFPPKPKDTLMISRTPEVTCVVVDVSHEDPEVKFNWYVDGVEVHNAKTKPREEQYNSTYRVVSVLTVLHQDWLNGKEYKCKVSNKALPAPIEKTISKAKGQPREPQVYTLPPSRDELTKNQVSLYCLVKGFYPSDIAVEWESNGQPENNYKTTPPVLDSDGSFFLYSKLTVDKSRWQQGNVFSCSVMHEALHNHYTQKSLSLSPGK
Protocol: The relative binding affinities of various 2D-VCAM-1 variants to immobilized VLA4-Fc (α4-β1-Fc) heterodimer, relative to a control protein (e.g., Q38L-2D-VCAM-1 or to human 2D-VCAM-1), were deter using a solid-phase ELISA assay. MAXISORP™ ELISA plates (NUNC) were coated overnight at 4° C. with 50 ul VLA4-Fc heterodimer, 2 ug/ml in TBS-M (TBS (25 mM Tris-HCl pH 7.5, 150 mM NaCl) with 1 mM MnCl2), washed with TBS-T (TBS with 0.05% TWEEN-20), blocked with 200 ul 3% milk in TBS-M for 1 h at room temperature, and washed again with TBS-T. A four-fold dilution series of the purified 2D-VCAM variants to be assayed was made in COSTAR U-bottom plates in TBS-TMC (TBS with 0.05% Tween-20, 1 mM MnCl2, and 1% casein; Sigma) with a starting concentration of 8.2 uM (200 ug/ml). The dilution series was transferred into the ELISA plate which was incubated at room temperature for 2 h and subsequently washed with TBS-T. Bound 2D-VCAM protein was detected by incubation with 0.5 ug/ml of biotinylated anti-human VCAM antibody (R&D Systems, Catalog No. BAF809) in TBS-TMC for 1 h at room temperature followed by a TBS-MT (TBS plus 1 mM MnCl2 and 0.02% TWEEN-20) wash and subsequent incubation with 1:2000 dilution of streptavidin-HRP (BD Biosciences, Catalog No. 554066) in TBS-TMC for 30 min at room temperature. […] Typical development times ranged from […] and development was stopped by addition of 50 ul 2M H₂SO₄ (EM, Catalog No. SX1244-75). […] Fold-improvement in binding was calculated relative to a control protein (e.g., Q38L-2D-VCAM-1 or human 2D-VCAM-1) assayed on the same plate.

[3] = target: T2, human LPAM-1-Fc (alpha4-Fc/beta7-Fc heterodimer) (human); assay: SPR (BIACORE), LPAM-1-Fc captured by anti-human IgG, 1 mM MnCl2, 1:1 Langmuir
T2 construct: Soluble heterodimer from CHO cells, Protein A purified
T2 sequence (chain, as listed by the source limits assumed, chain 1 of 2): as the sequence (chain, as listed by the source limits assumed, form in doubt, chain 1 of 2) above
T2 sequence (chain, as listed by the source limits assumed, chain 2 of 2): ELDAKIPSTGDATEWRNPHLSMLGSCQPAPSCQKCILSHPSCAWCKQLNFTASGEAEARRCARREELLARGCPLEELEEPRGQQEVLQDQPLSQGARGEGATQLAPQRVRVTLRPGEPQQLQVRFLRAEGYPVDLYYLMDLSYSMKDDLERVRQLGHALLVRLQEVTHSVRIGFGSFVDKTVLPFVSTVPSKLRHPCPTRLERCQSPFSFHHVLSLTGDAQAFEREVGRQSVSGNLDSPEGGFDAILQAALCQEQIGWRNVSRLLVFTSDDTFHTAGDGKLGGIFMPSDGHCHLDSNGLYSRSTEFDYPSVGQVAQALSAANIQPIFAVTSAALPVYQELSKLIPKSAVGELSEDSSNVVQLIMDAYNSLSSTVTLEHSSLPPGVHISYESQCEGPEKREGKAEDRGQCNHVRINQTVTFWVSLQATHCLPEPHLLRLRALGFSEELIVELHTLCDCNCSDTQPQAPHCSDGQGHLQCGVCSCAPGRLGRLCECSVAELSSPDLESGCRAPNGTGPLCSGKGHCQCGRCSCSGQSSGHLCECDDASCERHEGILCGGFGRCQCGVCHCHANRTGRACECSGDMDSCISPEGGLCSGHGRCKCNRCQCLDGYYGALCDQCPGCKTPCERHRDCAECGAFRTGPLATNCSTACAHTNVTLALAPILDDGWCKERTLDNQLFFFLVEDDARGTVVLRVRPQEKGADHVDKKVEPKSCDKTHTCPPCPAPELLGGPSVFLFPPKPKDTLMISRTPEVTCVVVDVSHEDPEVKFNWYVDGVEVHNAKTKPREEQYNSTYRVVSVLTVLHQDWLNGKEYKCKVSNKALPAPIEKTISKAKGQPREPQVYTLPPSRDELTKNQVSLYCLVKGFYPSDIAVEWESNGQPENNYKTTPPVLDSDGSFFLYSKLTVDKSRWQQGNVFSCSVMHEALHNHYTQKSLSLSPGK
Protocol: The kinetic 2D-VCAM-1 assay measures binding kinetics of a dimeric ligand (e.g., VLA-Fc fusion protein or LPAM-1-Fc fusion protein) coated to sensor chips and monomeric analyte (e.g., 2D-VCAM-1 variant polypeptides) in the mobile phase. Goat anti-human IgG antibody (Jackson ImmunoResearch, Catalog No. 105-005-098) was immobilized on CM-5 sensor chips (GE Healthcare, Catalog No. BR-1000-14) according to the manufacturer's protocol. Antibody was diluted to 30 μg/ml in immobilization buffer (10 mM sodium acetate, pH 5.0 (GE Healthcare, Catalog No. BR-1003-51)). […] Un-reacted sites were quenched with 35 μl of 1 M ethanolamine-HCl pH 8.5 (GE Healthcare, Catalog No. BR-1000-50). This procedure typically yielded 15,000 response units (RU) of coupled antibody. VLA4-Fc or LPAM-1-Fc, prepared as described in Examples 3 and 4, respectively, were bound to antibody-coated sensor chips by injection of 20 μl of ligand solution (20 μg/ml protein in HBS-P-Mn buffer at a flow rate of 10 μl/min). Ligand capture levels were typically 200-300 RU. 2D-VCAM-1 variant polypeptides were diluted in HBS-P-Mn and flowed over ligand-coated sensor chips for 2 min at 30 μl/min, followed by 5 min incubation with in HBS-P-Mn containing no protein at the same flow rate. For 2D-VCAM-1 variant polypeptides having very slow dissociation rates from VLA4-Fc or LPAM-1-Fc, kinetic assays were also conducted using longer dissociation times (e.g., 20 min). Rmax signal levels for 2D-VCAM-1 variant polypeptides ranged from approximately 5-25 RU. Regeneration between cycles was performed by 200 sec incubation with 10 mM glycine buffer (pH 1.7) at 50 μl/min. New chips were subjected to 4-5 cycles of capture/binding/regeneration prior to use in actual experiments. Data from a reference cell containing goat anti-human IgG capture antibody alone was subtracted from data obtained from flow cells containing captured VLA4-Fc or LPAM-1-Fc. Typically, 8 dilutions of 2D-VCAM-1 variant polypeptides ranging from 150 nM to 0.069 nM were analyzed against a blank reference (HBS-P-Mn buffer alone).

[4] = target: T1, human VLA4-Fc (alpha4-Fc/beta1-Fc …); assay: ELISA, VLA4-Fc coated, 1 mM MnCl2; from EC50 values; ELISA, VLA4-Fc coated on plate, 1 mM MnCl2 (activated VLA4); fold relative to human 2D-VCAM-1
Protocol: (§1) The relative binding affinities of various 2D-VCAM-1 variants to immobilized VLA4-Fc (α4-β1-Fc) heterodimer, relative to a control protein (e.g., Q38L-2D-VCAM-1 or to human 2D-VCAM-1), were deter using a solid-phase ELISA assay. […] The dilution series was transferred into the ELISA plate which was incubated at room temperature for 2 h and subsequently washed with TBS-T. Bound 2D-VCAM protein was detected by incubation with 0.5 ug/ml of biotinylated anti-human VCAM antibody (R&D Systems, Catalog No. BAF809) in TBS-TMC for 1 h at room temperature followed by a TBS-MT (TBS plus 1 mM MnCl2 and 0.02% TWEEN-20) wash and subsequent incubation with 1:2000 dilution of streptavidin-HRP (BD Biosciences, Catalog No. 554066) in TBS-TMC for 30 min at room temperature. […] Fold-improvement in binding was calculated relative to a control protein (e.g., Q38L-2D-VCAM-1 or human 2D-VCAM-1) assayed on the same plate.

[5] = target: T1, human VLA4-Fc (alpha4-Fc/beta1-Fc …); assay: ELISA, VLA4-Fc coated, 1 mM MnCl2; from EC50 values; ELISA, VLA4-Fc coated on plate, 1 mM MnCl2 (activated VLA4); fold relative to Q38L-2D-VCAM-1
Protocol: as §1

[6] = target: T1, human VLA4-Fc (alpha4-Fc/beta1-Fc …); assay: SPR (BIACORE), retest with new polypeptide preparations and new VLA4-Fc; retested with new polypeptide preparations and new VLA-Fc ligand (Table 5B)
Protocol: The kinetic 2D-VCAM-1 assay measures binding kinetics of a dimeric ligand (e.g., VLA-Fc fusion protein or LPAM-1-Fc fusion protein) coated to sensor chips and monomeric analyte (e.g., 2D-VCAM-1 variant polypeptides) in the mobile phase. Goat anti-human IgG antibody (Jackson ImmunoResearch, Catalog No. 105-005-098) was immobilized on CM-5 sensor chips (GE Healthcare, Catalog No. BR-1000-14) according to the manufacturer's protocol. Antibody was diluted to 30 μg/ml in immobilization buffer (10 mM sodium acetate, pH 5.0 (GE Healthcare, Catalog No. BR-1003-51)). […] Un-reacted sites were quenched with 35 μl of 1 M ethanolamine-HCl pH 8.5 (GE Healthcare, Catalog No. BR-1000-50). This procedure typically yielded 15,000 response units (RU) of coupled antibody. VLA4-Fc or LPAM-1-Fc, prepared as described in Examples 3 and 4, respectively, were bound to antibody-coated sensor chips by injection of 20 μl of ligand solution (20 μg/ml protein in HBS-P-Mn buffer at a flow rate of 10 μl/min). Ligand capture levels were typically 200-300 RU. […] Typically, 8 dilutions of 2D-VCAM-1 variant polypeptides ranging from 150 nM to 0.069 nM were analyzed against a blank reference (HBS-P-Mn buffer alone).

Chain of human VLA4 (integrin alpha4beta1) on the surface of U937 cells (P13612 34-1032, chain 1 of 2): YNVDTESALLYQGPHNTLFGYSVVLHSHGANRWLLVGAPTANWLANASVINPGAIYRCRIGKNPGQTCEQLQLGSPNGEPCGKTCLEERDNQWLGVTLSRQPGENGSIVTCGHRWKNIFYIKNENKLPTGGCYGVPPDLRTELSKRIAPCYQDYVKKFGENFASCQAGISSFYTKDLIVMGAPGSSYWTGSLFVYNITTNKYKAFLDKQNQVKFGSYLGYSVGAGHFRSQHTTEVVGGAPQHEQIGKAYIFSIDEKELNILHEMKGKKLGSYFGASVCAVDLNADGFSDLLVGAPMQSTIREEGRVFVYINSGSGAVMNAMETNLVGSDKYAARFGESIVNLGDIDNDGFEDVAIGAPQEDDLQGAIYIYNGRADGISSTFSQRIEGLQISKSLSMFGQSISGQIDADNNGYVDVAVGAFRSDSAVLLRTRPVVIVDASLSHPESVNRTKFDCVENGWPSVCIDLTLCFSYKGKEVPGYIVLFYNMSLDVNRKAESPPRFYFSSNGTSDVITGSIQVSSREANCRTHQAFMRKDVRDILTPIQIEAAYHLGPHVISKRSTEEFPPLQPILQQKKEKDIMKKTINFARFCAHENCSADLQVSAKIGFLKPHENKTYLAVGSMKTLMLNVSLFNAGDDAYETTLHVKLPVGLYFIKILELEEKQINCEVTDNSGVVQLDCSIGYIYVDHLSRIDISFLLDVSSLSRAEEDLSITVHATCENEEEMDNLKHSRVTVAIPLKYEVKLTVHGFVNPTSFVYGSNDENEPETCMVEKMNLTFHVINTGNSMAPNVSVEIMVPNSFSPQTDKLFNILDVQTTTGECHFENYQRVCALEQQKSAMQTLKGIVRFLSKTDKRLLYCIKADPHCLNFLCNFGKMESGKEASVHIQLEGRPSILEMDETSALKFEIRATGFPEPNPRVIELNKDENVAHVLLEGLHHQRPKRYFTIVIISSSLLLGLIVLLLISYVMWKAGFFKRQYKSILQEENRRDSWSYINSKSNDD
Chain of human VLA4 (integrin alpha4beta1) on the surface of U937 cells (P05556 21-798, chain 2 of 2): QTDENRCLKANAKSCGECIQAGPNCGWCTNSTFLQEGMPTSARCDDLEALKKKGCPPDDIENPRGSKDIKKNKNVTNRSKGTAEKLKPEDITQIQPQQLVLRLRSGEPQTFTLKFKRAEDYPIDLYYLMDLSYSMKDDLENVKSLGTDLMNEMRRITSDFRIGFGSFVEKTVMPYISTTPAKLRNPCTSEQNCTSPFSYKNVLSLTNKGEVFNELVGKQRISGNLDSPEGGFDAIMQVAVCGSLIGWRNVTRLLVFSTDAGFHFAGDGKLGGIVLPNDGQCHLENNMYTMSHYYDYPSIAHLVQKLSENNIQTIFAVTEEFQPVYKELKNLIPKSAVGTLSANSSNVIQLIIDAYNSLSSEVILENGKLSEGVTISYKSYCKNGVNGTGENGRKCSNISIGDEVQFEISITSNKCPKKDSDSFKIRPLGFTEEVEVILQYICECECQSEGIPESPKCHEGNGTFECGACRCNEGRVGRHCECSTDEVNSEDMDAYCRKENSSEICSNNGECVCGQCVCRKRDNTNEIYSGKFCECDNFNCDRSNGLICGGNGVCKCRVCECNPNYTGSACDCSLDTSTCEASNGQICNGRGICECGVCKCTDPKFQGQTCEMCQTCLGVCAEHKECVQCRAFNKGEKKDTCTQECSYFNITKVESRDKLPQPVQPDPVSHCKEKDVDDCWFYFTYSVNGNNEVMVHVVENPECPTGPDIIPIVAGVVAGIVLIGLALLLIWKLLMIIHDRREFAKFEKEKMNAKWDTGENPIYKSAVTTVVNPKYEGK

IC50 of inhibition of U937 cell adhesion to immobilized 7D-VCAM-1 [1]	fold-improvement in binding relative to Q38L-2D-VCAM-1 [2]	fold-improvement in binding relative to human 2D-VCAM-1 [2]	Kd [3]	binding affinity for LPAM-1-Fc relative to human 2D-VCAM-1 [3]	fold-improvement in binding relative to human 2D-VCAM-1 [4]	fold-improvement in binding relative to Q38L-2D-VCAM-1 [5]	Kd [6]	Binder
6.4 nM and 0.16 mg/ml	21 fold	172 fold	27.2 nM	9 fold	–	–	–	2D-VCAM-1 variant Clone 46 (ligand, also called Clone 046; not shown: His tag) FKIETTPESRYLAQIGDSVSLTCSTTGCESPFFSWRPQLDAPLNGKVTNEGTTSTLTMNPVSFGNEHSYLCTATCESRKLEKGIQVEIYSFPKDPEIHLSGPLEAGKPITVKCSVADVYPFDRLEIDLLKGDHLMKSQEFLEDADRKSLETKSLEVTFTPVIEDIGKVLVCRAKLHIDEMDSVPTVRQAVKELQVYISP
–	1 fold	8 fold	20.5 nM	12 fold	–	–	–	Q38L-2D-VCAM-1 (ligand, also called Q38L 2D-VCAM-1 polypeptide; not shown: His tag) FKIETTPESRYLAQIGDSVSLTCSTTGCESPFFSWRTLIDSPLNGKVTNEGTTSTLTMNPVSFGNEHSYLCTATCESRKLEKGIQVEIYSFPKDPEIHLSGPLEAGKPITVKCSVADVYPFDRLEIDLLKGDHLMKSQEFLEDADRKSLETKSLEVTFTPVIEDIGKVLVCRAKLHIDEMDSVPTVRQAVKELQVYISP
0.8 nM and 0.02 mg/ml	–	–	0.439 nM	565 fold	298 fold	37 fold	0.018 nM	2D-VCAM-1 variant Clone 146 (ligand, not shown: small tags and cut ends) FKIETTPESRYLAQIGDSVSLTCSTTGCESPLFFWRPLLDSPLNGKVTNEGTTSTLTMNPVSFGNEHSYLCTARCESRSLEKGIQVEIYSFPKDPEIHLSGPLEAGKPITVKCSVADVYPFDRLEIDLLKGDHLMKSQEFLEDADRKSLETKSLEVTFTPVIEDIGKVLVCRAKLHIDEMDSVPTVRQAVKELQVYISP
–	16 fold	128 fold	6.54 nM	38 fold	–	–	–	2D-VCAM-1 variant Clone 47 (ligand, also called Clone 047; not shown: His tag) FKIETTPESRYLAQIGDSVSLTCSTTGCESPFFSWRPLLDSPLNGKVTNEGTTSTLTMNPVSFGNEHSYLCTATCESRKLEKGIQVEIYSFPKDPEIHLSGPLEAGKPITVKCSVADVYPFDRLEIDLLKGDHLMKSQEFLEDADRKSLETKSLEVTFTPVIEDIGKVLVCRAKLHIDEMDSVPTVRQAVKELQVYISP
–	34 fold	272 fold	0.405 nM	612 fold	–	–	–	2D-VCAM-1 variant Clone 59 (ligand, also called Clone 059; not shown: His tag) FKIETTPESRYLAQIGDSVSLTCSTTGCESPFFSWRPLLDSPLNGKVTNEGTTSTLTMNPVSFGNEHSYLCTATCESRKLEKGIQVEIYSFPKDPEIHLSGPLEAGKPITVKCSVADVYPFDRLEIDLLKGDHLMKSQEFFEDAAWKSLETKSLEVTFTPVIEDIGKVLVCRAKLHIDEMDSVPTVRQAVKELQVYISP
